Assay results: IntAct's records for PubMed 14675534

B1: Partitioning defective protein 3 (Caenorhabditis elegans), Q17353 (parent)
chain: MSASSTSSSSTSCPEGGEPSGSCKSSDEGESTLKKRMQQYGIASGYANSSISTLDRSQYQSLPLNGTRRVTVQFGRMKIVVPWKESDQTVGQLADAALLRYKKARGMANEDRIHVHRLECASDGGILDMDDVLEEVFDLNYDQILAITDEANGGSTTPTYSQIQKQQHHYAQPLPYARKFDGGPSTPIASAFGSVTVNHQAHRAASPYNVGFARSNSRDFAPQPTHSKERRDSVVEVSSFDQIPQSGLRVSTPKPSRQSEDVIDGKPMNQPILRSSLRTEASGSRTEEATPVKQSRVTLSPEVEKKLAEQDERKSERRKHYDKNPGRFARGSDRKSRITDALLDARDRIADQLESQNPAEETKSQMIRVKIDQGPMPGTSLVTFPPIPEKSENEKQLGIEVNAVFDESSELPGTSEPTKLSSVQIMKIEDGGRIAKDGRIRVGDCIVAIDGKPVDQMSIIRVRASISDLAAVTSRPVTLIINRSLESFLEQESSAKPIQSALQQANTQYIGHTTVVELIKSSNGFGFTVTGRETAKGERLFYIGTVKPYGVALGHLKSGDRLLEINGTPTGQWTQSEIVEKLKETMVGEKIKFLVSRVSQSAIMSTSASSENKENEETLKVVEEEKIPQKLPLPALMTPPVPKDTPALSPSGASRFEIVIPFINGSSSAGLGVSLKARVSKKSNGSKVDCGIFIKNVMHGGAAFKEGGLRVDDRIVGVEDIDLEPLDNREAQAALAKKLKEVGMISSNVRLTISRYNECNPGQISRDLSRITVDASSPSPSSRMSSHTAPDSLLPSPATRGTSSSGADSSHSRQSSASSAVPAVPARLTERDSIVSDGTSRNDESELPDSADPFNREGLGRKSLSEKRGMGAAADPQHIKLFQDIKHQRQNSAPTSSTQKRSKSQPRSSSQRNYRSPMKLVDLPTTAAASASTNSQNLDDSDMLNRRSQSMESINRPVESILRGTGQIPTGSSSKVQFMQAASPDQHPFPPGAALLRLKNEESRSRDKSRRKSMGNPFSAMRNFFGFGSKSRDASPEKTPTESVQLRSVERPKSIIDERNNGSSERAPPPLPPHQSQRRGSGGNVFVDYGEPYGLIPQYPHNTTSGYESYADSELYDRYAAHRYHPRGGPIIDEDEYIYRQQSTSGNSPINTSSYVNYGLPASNAYHVGSRIPPQTSSGSISKTSGAMRRVYPAEYDEDVAYHQQIPQQSTRYQQGSGSGRGNADYHHMFNSWFAYTGGGAVGAAPVIKSSYGSSPVRIAAASAIERGESFVVEPVSGSSASATDRRGRSTSSGAVASGSSSTGFQYAAKEKYADARSGKFNGGSTRLFIPRHGGGLSAAAFATNFGGEAYETRGGGAGGSPSQYRRRDQGPPHRFPQY
partner: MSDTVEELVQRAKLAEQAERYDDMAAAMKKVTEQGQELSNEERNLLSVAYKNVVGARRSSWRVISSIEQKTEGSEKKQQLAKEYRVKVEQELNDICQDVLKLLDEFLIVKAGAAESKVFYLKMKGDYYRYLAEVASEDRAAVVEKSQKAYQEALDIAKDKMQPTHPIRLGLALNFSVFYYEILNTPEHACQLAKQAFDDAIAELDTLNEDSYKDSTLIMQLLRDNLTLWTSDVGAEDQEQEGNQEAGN

Variants of: B1
Settings: with 14331_caeel par-5, P41932

Row | Variant | effect of a mutation on the interaction
1 | S960A | decreasing interaction
